Laboratory results: patent US20130089513A1 (MEDEXGEN, published 2013)

Target: T1, G-CSF receptor linked to Fc domain of human IgG (human, UniProt Q99062 25-627, limits assumed)
T1 sequence (looked up): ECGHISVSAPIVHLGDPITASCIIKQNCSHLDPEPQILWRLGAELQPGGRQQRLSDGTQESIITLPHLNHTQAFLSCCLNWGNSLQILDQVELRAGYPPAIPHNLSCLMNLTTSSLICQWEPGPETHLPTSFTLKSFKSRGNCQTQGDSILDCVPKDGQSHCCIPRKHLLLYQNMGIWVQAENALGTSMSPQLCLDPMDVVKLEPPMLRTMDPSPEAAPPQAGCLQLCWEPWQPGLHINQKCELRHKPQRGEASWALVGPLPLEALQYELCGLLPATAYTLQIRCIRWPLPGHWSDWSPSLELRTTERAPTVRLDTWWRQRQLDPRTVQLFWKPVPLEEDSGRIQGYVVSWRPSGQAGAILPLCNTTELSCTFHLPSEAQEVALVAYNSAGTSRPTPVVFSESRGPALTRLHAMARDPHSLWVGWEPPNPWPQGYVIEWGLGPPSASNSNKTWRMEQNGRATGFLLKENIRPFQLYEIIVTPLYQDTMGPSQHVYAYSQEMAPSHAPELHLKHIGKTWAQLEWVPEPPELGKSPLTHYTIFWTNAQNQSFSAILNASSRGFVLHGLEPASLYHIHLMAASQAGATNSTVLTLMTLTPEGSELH
Test: ELISA on coated G-CSF receptor-Fc, done like the TPO ELISA

| Binder | EC50 (read off the curve) |
| --- | --- |
| wild type G-CSF (ligand, cDNA from leukocytes of healthy people; expressed in CHO-K1 cells; also called G-CSF wild type) TPLGPASSLPQSFLLKCLEQVRKIQGDGAALQEKLCATYKLCHPEELVLLGHSLGIPWAPLSSCPSQALQLAGCLSQLHSGLFLYQGLLQALEGISPELGPTLDTLQLDVADFATTIWQQMEELGMAPALQPTQGAMPAFASAFQRRAGGVLVASHLQSFLEVSYRVLRHLAQP | ~0.04 µg/mL |
| G-CSF F13V (ligand, used as CHO-K1 culture supernatant) cytokine chain: TPLGPASSLPQSVLLKCLEQVRKIQGDGAALQEKLCATYKLCHPEELVLLGHSLGIPWAPLSSCPSQALQLAGCLSQLHSGLFLYQGLLQALEGISPELGPTLDTLQLDVADFATTIWQQMEELGMAPALQPTQGAMPAFASAFQRRAGGVLVASHLQSFLEVSYRVLRHLAQP | ~0.03 µg/mL |
| G-CSF F113V (ligand, used as CHO-K1 culture supernatant) cytokine chain: TPLGPASSLPQSFLLKCLEQVRKIQGDGAALQEKLCATYKLCHPEELVLLGHSLGIPWAPLSSCPSQALQLAGCLSQLHSGLFLYQGLLQALEGISPELGPTLDTLQLDVADVATTIWQQMEELGMAPALQPTQGAMPAFASAFQRRAGGVLVASHLQSFLEVSYRVLRHLAQP | ~0.06 µg/mL |
| G-CSF-[F140V] (ligand, G-CSF mutein expressed in CHO-K1 cells; also called G-CSF-[F140VD]) TPLGPASSLPQSFLLKCLEQVRKIQGDGAALQEKLCATYKLCHPEELVLLGHSLGIPWAPLSSCPSQALQLAGCLSQLHSGLFLYQGLLQALEGISPELGPTLDTLQLDVADFATTIWQQMEELGMAPALQPTQGAMPAVASAFQRRAGGVLVASHLQSFLEVSYRVLRHLAQP | ~0.06 µg/mL |
| G-CSF-[F160V] (ligand, G-CSF mutein expressed in CHO-K1 cells) TPLGPASSLPQSFLLKCLEQVRKIQGDGAALQEKLCATYKLCHPEELVLLGHSLGIPWAPLSSCPSQALQLAGCLSQLHSGLFLYQGLLQALEGISPELGPTLDTLQLDVADFATTIWQQMEELGMAPALQPTQGAMPAFASAFQRRAGGVLVASHLQSVLEVSYRVLRHLAQP | ~0.04 µg/mL |
